Values quoted from earlier work in patent publication US20230332104A1, “ZBTB32 INHIBITORS AND USES THEREOF” (NOVARTIS AG, priority 2020, published 2023).

Test system: rodent and cynomolgus monkey TGF-β

B1: XOMA 089: fully human monoclonal antibody that specifically binds and neutralizes TGF-beta 1 and 2 ligands (antibody, V domains shown)
VH: QVQLVQSGAEVKKPGSSVKVSCKASGGTFSSYAISWVRQAPGQGLEWMGGIIPIFGTANYAQKFQGRVTITADESTSTAYMELSSLRSEDTAVYYCARGLWEVRALPSVYWGQGTLVTVSS
VL: SYELTQPPSVSVAPGQTARITCGANDIGSKSVHWYQQKAGQAPVLVVSEDIIRPSGIPERISGSNSGNTATLTISRVEAGDEADYYCQVWDRDSDQYVFGTGTKVTVLG
cross-reactivity with rodent and cynomolgus monkey TGF-β: cross-reacts
